Series [1] has as its target pVI (precursor to protein VI) (Human adenovirus 2) (UniProt P03274). The series is described as follows: FP. As to conditions: 20 mM Tris pH 8.0, 0.025% DDM, 0.1 mM DTT, 1 mM MgCl2, 21 C; 4:1 stoichiometry.
Series [2] has as its system Protein VI (Human adenovirus 2). Kind of series: FP. The conditions noted are these: 20 mM Tris pH 8.0, 0.025% DDM, 1 mM MgCl2, 21 C.

pKd: −log10 of the molar value.

Sequence of pVI (precursor to protein VI) (Human adenovirus 2) (P03274 whole entry): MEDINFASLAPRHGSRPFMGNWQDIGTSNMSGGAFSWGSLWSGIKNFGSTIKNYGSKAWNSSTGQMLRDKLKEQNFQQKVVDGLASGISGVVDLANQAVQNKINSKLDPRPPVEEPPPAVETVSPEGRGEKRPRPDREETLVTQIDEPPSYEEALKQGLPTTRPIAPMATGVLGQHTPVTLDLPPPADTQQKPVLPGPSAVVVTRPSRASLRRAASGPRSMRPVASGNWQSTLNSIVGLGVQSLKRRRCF

Regarding 33-mer dsDNA, the pKd – broadly, the Kd on a negative log10 scale, so that one unit is a factor of ten – in series [1] was 7.46; in series [2], 6.62.

(Values after patent US20150210738.)
